The source of these data is PMC5411485.

This data set relates to ScNsrR wild type, [4Fe-4S] holo (Streptomyces coelicolor). Kind of data set: EMSA. The note with it: EMSA: 10 mM Tris, 54 mM KCl, 0.3% glycerol, 1.32 mM glutathione, pH 7.2, on ice ~10 min; 5% PAGE in 1x TBE. On the technique in general: Mobility shift assays separate free from complexed probe on a gel.

Consider hmpA1 promoter probe, for which the K half ([4Fe-4S] protein:DNA ratio) is below 2.
